# ± gives the uncertainty stated by the source.
# Assay: amyloid nucleation score (Sup35N fusion, yeast selection) (log enrichment); library NNK1; higher = more nucleation; inactive = no reads after selection
# In short: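 Libraries of peptides of 20 random codons fused to Sup35N were expressed in psi-negative yeast and induced 24 hours with 100 μM copper sulfate. Selection was 7 days at 30°C on medium lacking adenine and uracil, and plasmid inserts were Illumina-sequenced before and after selection. Nucleation score is the DiMSum log enrichment of output over input reads, centred on the mode score of non-aggregating sequences, and sequences with under 100 input reads were left out.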
row,Substance,amyloid nucleation score
1,CEAFADTSSSYRDFYLQHQL,-1.44 ± 1.2
2,CELRTD,inactive
3,CELSDSVNGNTFNMN,2.18 ± 0.49
4,CFCFLRFYRLQPNAQLDSKS,1.69 ± 0.31
5,CFGASNSLLFVDSSAWGSSG,-0.242 ± 0.5
6,CFIRLNNWLF,1.59 ± 0.46
7,CFNMYLDVFDRVCRM,1.85 ± 0.13
8,CFVFLFFVPLWSRNRGEYMY,-0.937 ± 0.68
9,CFVGMMKRFR,1.36 ± 0.4
10,CFYFMECLV,-0.254 ± 0.59
11,CGFSDNGTCKND,-0.059 ± 0.28
12,CGGFGMIFYL,3.03 ± 0.11
13,CGNLVCCNIMTDKNGY,7.886 ± 0.055
14,CGRVDEFKALLYKILRDYNW,-0.141 ± 0.23
15,CGYLCNGKSGERSGIFGAHQ,-0.088 ± 0.39
16,CGYSKVPMPCALAECGGRPR,0.054 ± 0.45
17,CHELLALDLLSMRNS,0.416 ± 0.55
18,CHNVVLFVVTQSMCEVSGGW,inactive
19,CHVSLYRMDIGLQYRTGRIW,0.645 ± 0.52
20,CHYFMNTLIV,inactive
21,CIDFKSSGAGSTMSWNLVFN,-0.188 ± 0.48
22,CIDYLRSDC,1.2 ± 0.53
23,CIFAYKCSIYERESL,0.776 ± 0.49
24,CIGWSNGAPRCNQGRQRDRG,0.828 ± 0.66
25,CIYSICYFCNS,7.924 ± 0.043

row,Substance,amyloid nucleation score
1,CKVQLSQDRAVECGVNHGVY,-0.01 ± 0.44
2,CLCSYYKILVYSSLVLDNAY,0.58 ± 0.45
3,CLCVGDDGGADWNKVRVITS,0.18 ± 0.61
4,CLETRYL,1.15 ± 0.54
5,CLFLDWMPM,0.548 ± 0.84
6,CLFLLNVGLSLLIGLPRYMW,0.552 ± 0.91
7,CLFRCVVEPLVIGYTKCAS,inactive
8,CLFSRELTLSPLWDLVK,1.79 ± 0.15
9,CLGHLLLTESIPCSFCSYWM,4.55 ± 0.075
10,CLGNNSFGDLGI,0.368 ± 0.34
11,CLGVSSGRLKCYVNYYCDNW,0.106 ± 0.51
12,CLLSRLYMVSLFWS,0.033 ± 0.43
13,CLLVKLARLGDG,0.536 ± 0.63
14,CLPCVCIVNFTLGYDKGVV,8.027 ± 0.048
15,CLPLACLKTLSNDSVWLDCA,0.402 ± 0.35
16,CLPRSGLSINWTVSHNYRLI,0.11 ± 0.25
17,CLRLELDKF,3.34 ± 0.12
18,CLSRKSWFWHGRWESVSCHP,-0.018 ± 0.53
19,CLSRLLVLKYLSTWSKKWVW,-0.115 ± 0.25
20,CLSYIVVALVRCTDIYYP,0.763 ± 0.42
21,CLVKTSSVSTIWLVSCNTRT,0.648 ± 0.55
22,CLVVVISS,-0.369 ± 0.57
23,CLVWLGNNFLDSLWGEGGRA,-0.291 ± 0.38
24,CLWGILDEGRFGSWFNNFAS,0.467 ± 0.9
25,CLYWFLKEHFC,1.06 ± 0.78

row,Substance,amyloid nucleation score
1,CMDRSLMVNNTRPYGCLLEY,6 ± 0.061
2,CMMSNRTCQAQLVMMWEMW,inactive
3,CMNSMC,0.066 ± 0.66
4,CMSVETLTEMVYFKSYTL,0.257 ± 0.42
5,CNFLLATWRRLKYTSQYLKS,-0.073 ± 0.69
6,CNFSQYMRVHHTSYLEPTDH,3.22 ± 0.12
7,CNICNPI,-0.585 ± 1.6
8,CNNSSGRVVRLCSMDGGLLG,-0.021 ± 0.65
9,CNTPSTCNCVIVRPSYPSQY,-0.088 ± 0.61
10,CNVGLKVYLADISSGSVCYL,4.39 ± 0.075
11,CPGFFILVQCIVYMDTDCGF,3.81 ± 0.095
12,CPMEKSGVELDV,0.094 ± 0.41
13,CPNIEKPSLLST,-2.01 ± 2.4
14,CPVGQTNCQDL,0.072 ± 0.51
15,CPWRNRII,0.684 ± 0.6
16,CQSFIGTDTKFVIPDMVLAA,inactive
17,CQVPSGESNDSPVLRHI,-0.138 ± 0.43
18,CQVVLISWTGSHKGNLEHNA,1.08 ± 0.3
19,CQYMFHIWQLIANHVI,0.799 ± 0.43
20,CRDNCCPLVVYW,0.531 ± 0.33
21,CRDRRS,1.91 ± 0.35
22,CRFMNVRYGKRMKVDNTVMA,-0.891 ± 1.4
23,CRFPCSCHRWSMIRSVVCKR,0.03 ± 0.97
24,CRLSTS,-0.966 ± 0.42
25,CRSSGADSRLLNIVKPCTLP,-0.616 ± 0.33

row,Substance,amyloid nucleation score
1,CRTVAHFRP,0.481 ± 0.61
2,CSAKNLYVTTQFSLVLFVGS,6.422 ± 0.052
3,CSDKKLGEWSASWNCNRDRM,-0.171 ± 1.7
4,CSGNI,-1.32 ± 1.7
5,CSIVYCMCGLCAS,8.43 ± 0.055
6,CSNRWYVNMFVHWIFVHLGS,1.47 ± 0.53
7,CSPLVGMTGAMLTVRGSISR,0.019 ± 1
8,CSRNTSVA,1.01 ± 0.57
9,CSRRFYESPCKEPAA,0.145 ± 0.43
10,CSTQRVPGGGLGKSWL,0.18 ± 1.2
11,CSTRLSSKFSDTIYVEVFSF,inactive
12,CSTTLEVTVGMAVVMLLQGI,2.66 ± 0.086
13,CSWVTPNGRVLHCLTNLYYY,0.297 ± 0.59
14,CSYPHIDIAPRSACPTWTQD,0.432 ± 0.72
15,CTARLIA,0.13 ± 0.28
16,CTDPFQDLTRELLLLVCIGL,-0.201 ± 0.65
17,CTFKAWRLYSVNKDSRIVLK,-0.576 ± 1.1
18,CTSLDFSNKVRCVMGQSVLL,-0.606 ± 0.97
19,CVAGLVDGKRKNVIRKWFWN,0.049 ± 0.44
20,CVARIDCEWIKPLSLHCSCT,-0.499 ± 1.3
21,CVFRSYQWWSSHLYFVNVCN,0.667 ± 0.68
22,CVFYASTYVIPYNCENNFTI,0.952 ± 0.26
23,CVFYCRR,0.091 ± 1.1
24,CVFYISINCYFIWVRLDWVY,inactive
25,CVKRLLPVYWWGESG,0.123 ± 0.91

row,Substance,amyloid nucleation score
1,CVMYSRGFYCADCVCNLMPC,4.85 ± 0.053
2,CVPPRVRCRFEL,0.792 ± 0.46
3,CVSATRV,0.042 ± 0.48
4,CVSPSVTNFAELVSIVISPS,0.652 ± 0.66
5,CVTLCSDVSYSTYNWLPFIR,0.834 ± 0.44
6,CVYGGIFYRTGYLYFEVYFY,0.134 ± 0.31
7,CWASRSSCSLLYVRVVMRHC,0.371 ± 0.57
8,CWDGRQIWVILVIVLIRINA,-0.466 ± 0.91
9,CWKLETYTSTDSQVGQANLK,-1.28 ± 0.96
10,CWPSRQF,0.373 ± 0.94
11,CWRSVCGLLATGNQYFFGNA,4.88 ± 0.07
12,CWVYFSNSSVILRR,0.074 ± 0.84
13,CYGFCNCQYSESSKLLFDAL,-1.11 ± 0.34
14,CYSAVPIYDFKYRPAGYYIS,inactive
15,CYSGCYRLCRVIVASCRCRG,0.015 ± 0.71
16,CYSVIRREQNLNILV,1.71 ± 0.53
17,CYTHPVMSITLNSI,2.36 ± 0.15
18,DACCYDECVS,0.782 ± 0.25
19,DACIGWVRYRSILCCMVLVA,-0.005 ± 1.7
20,DADDLSIGAVNRTC,-0.066 ± 0.5
21,DAEFRHGAIIGLMVGGVVIA,3.45 ± 0.22
22,DARSNSVLYQRCSTSRGRSG,-0.615 ± 0.84
23,DCCKLTDQQWDVIHAGIWGG,1.55 ± 0.69
24,DCDGVLSLCIMVHEIYRKVG,inactive
25,DCISRLWR,-0.83 ± 0.89

row,Substance,amyloid nucleation score
1,DCPTYWFVAKFFANWVR,inactive
2,DEPLNTMRSYACWSSDSSHP,0.139 ± 0.48
3,DFFRFC,inactive
4,DFFRSANMYLGFASGGEGNG,0.77 ± 0.52
5,DFLIAVMEQSMAQFKGHSSD,0.071 ± 1.2
6,DFRWWYLFC,1.11 ± 0.26
7,DFYTVLEKYVM,-0.157 ± 0.7
8,DGFCCGIYYILSEMTGHSRS,1.41 ± 0.65
9,DGHFVALSVLVCTMRC,1.01 ± 0.65
10,DGLICVPVKLYVNIGKTFTW,0.847 ± 0.41
11,DGLKWVDWPWGHYGEMMVEM,1.01 ± 0.55
12,DGRKG,1.26 ± 0.66
13,DGRVKAKVMMVRNGSLRNVL,0.002 ± 0.4
14,DGSGGPYIGILLWGLAKMSG,-0.488 ± 0.85
15,DHHRFRGLL,0.657 ± 0.62
16,DHIEMFGKVGYYHNMILW,0.762 ± 0.37
17,DHNLWFDNAFMSLCCCMNMI,3.42 ± 0.19
18,DHPCTTWVLPSYGPEDPLPC,0.175 ± 0.35
19,DHVSLSDSRKKRSQIGIIHA,0.978 ± 0.45
20,DILCASPTLLAE,0.161 ± 0.49
21,DILQDFIGQPLRSN,1.04 ± 0.6
22,DINNCSSEGRTYPFVIELPP,1.03 ± 0.76
23,DINSYVAYLVYEGLVNGSDE,0.252 ± 0.46
24,DIPIDIWSYPQHGRFS,-0.814 ± 0.79
25,DIRVIVRIYQSIINL,3.15 ± 0.09

row,Substance,amyloid nucleation score
1,DIVSVVVWLKQYLWFEQWNV,0.644 ± 0.81
2,DKERSGTKQYNSYG,-0.039 ± 0.73
3,DKLVYLHWPIYNVSVLCCRG,5.14 ± 0.095
4,DKVLQLMYMGLDSGVLPSKD,-0.789 ± 1
5,DLCATDMGGYKRGEGPEGAL,-0.267 ± 1.1
6,DLFCFELVDHTLLLGWTTVQ,-0.564 ± 0.66
7,DLGKVVNCYFLFYR,1.51 ± 0.25
8,DLKFHLLIWVCRIGSDKNVK,0.071 ± 1.2
9,DLPLTYMCSN,0.359 ± 0.7
10,DLRSPRNS,inactive
11,DLSWGSRHY,-0.899 ± 0.42
12,DLVYC,-0.307 ± 0.52
13,DMFVGKTRMRRGSVMLYFMG,0.829 ± 0.52
14,DMSIKFCEPDFLLRNEQHNL,0.382 ± 0.3
15,DMTAVYLFVTVYSYDLSC,0.569 ± 0.14
16,DNGGSAVQEDQVLAWSTGEQ,0.874 ± 0.23
17,DNKFYHKVTDRRFLIPIFQI,-0.331 ± 0.37
18,DNLSIWGL,-0.629 ± 0.89
19,DNMYIFEN,-0.352 ± 0.46
20,DNRLMHIIDMWCRSYFSGHT,-0.063 ± 1.4
21,DNSLFLYQRAR,-0.449 ± 0.82
22,DPIRCMCVFMVHPCRCDID,0.45 ± 1.1
23,DPNFITMACQIADECAYCCH,inactive
